Values of other authors as cited in patent US20210338656A1, “IMMUNOSTIMULATORY AGENTS IN COMBINATION WITH ANGIOGENESIS INHIBITORS” (Alkermes Pharma Ireland Limited, priority 2020, published 2021).

Tested on: CD8+ T cells, NK cells, Tregs
Conditions: human patients; cited from earlier work

B1: fusion protein of SEQ ID NO: 1: circularly permuted (cp) IL-2 variant fused to the extracellular domain of the IL-2Rα portion of the IL-2 receptor (protein)
chain: SKNFHLRPRDLISNINVIVLELKGSETTFMCEYADETATIVEFLNRWITFSQSIISTLTGGSSSTKKTQLQLEHLLLDLQMILNGINNYKNPKLTRMLTFKFYMPKKATELKHLQCLEEELKPLEEVLNLAQGSGGGSELCDDDPPEIPHATFKAMAYKEGTMLNCECKRGFRRIKSGSLYMLCTGNSSHSSWDNQCQCTSSATRNTTKQVTPQPEEQKERKTTEMQSPMQPVDQASLPGHCREPPPWENEATERIYHFVVGQMVYYQCVQGYRALHRGPAESVCKMTHGKTRWTQPQLICTG
modifications: Human cpIL-2IL-2R-alpha
notes: circularly permuted (cp) IL-2 variant fused to the extracellular domain of the IL-2Rα portion of the IL-2 receptor
For B1, the “activation of T regs” value is listed as “absence of dose dependent activation”, the “expansion of CD8+ T cells and NK cells” value is listed as “in a dose dependent manner” and the “relative expansion of immunosuppressive Tregs as compared to high dose rhIL-2” value is listed as “at least two fold less”.
